{"source": "paper PMC10228544", "about": "(Science immunology, 2023)"}
{"molecular_target": "Alexa-Fluor-488-conjugated recombinant hCD19-hFc (Homo sapiens, UniProt P15391, Alexa Fluor 488 conjugate)", "sequence (P15391 20-291)": "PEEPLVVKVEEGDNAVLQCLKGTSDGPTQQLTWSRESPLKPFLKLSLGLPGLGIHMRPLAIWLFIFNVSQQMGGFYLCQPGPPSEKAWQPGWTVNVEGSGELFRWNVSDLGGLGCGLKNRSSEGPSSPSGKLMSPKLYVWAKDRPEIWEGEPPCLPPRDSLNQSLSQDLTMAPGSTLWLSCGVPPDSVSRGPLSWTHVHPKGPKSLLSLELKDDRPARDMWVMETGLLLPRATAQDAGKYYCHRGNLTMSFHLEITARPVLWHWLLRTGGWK", "assay": "flow cytometry on cells"}
{"binder": "SJ25C1^WT CAR (SJ25C1 scFv, CD28, CD3-zeta) on CAR T cells (receptor) VH: EVKLQQSGAELVRPGSSVKISCKASGYAFSSYWMNWVKQRPGQGLEWIGQIYPGDGDTNYNGKFKGQATLTADKSSSTAYMQLSGLTSEDSAVYFCARKTISSVVDFYFDYWGQGTTVTVSS VL: DIELTQSPKFMSTSVGDRVSVTCKASQNVGTNVAWYQQKPGQSPKPLIYSATYRNSGVPDRFTGSGSGTDFTLTITNVQSKDLADYFCQQYNRYPYTSGGGTKLEIK", "binding result": "binds"}
{"binder": "SJ25C1^W52F CAR on CAR T cells (receptor) VH: EVKLQQSGAELVRPGSSVKISCKASGYAFSSYFMNWVKQRPGQGLEWIGQIYPGDGDTNYNGKFKGQATLTADKSSSTAYMQLSGLTSEDSAVYFCARKTISSVVDFYFDYWGQGTTVTVSS VL: DIELTQSPKFMSTSVGDRVSVTCKASQNVGTNVAWYQQKPGQSPKPLIYSATYRNSGVPDRFTGSGSGTDFTLTITNVQSKDLADYFCQQYNRYPYTSGGGTKLEIK", "binding result": "binds"}
{"binder": "SJ25C1^I120V CAR on CAR T cells (receptor) VH: EVKLQQSGAELVRPGSSVKISCKASGYAFSSYWMNWVKQRPGQGLEWIGQIYPGDGDTNYNGKFKGQATLTADKSSSTAYMQLSGLTSEDSAVYFCARKTVSSVVDFYFDYWGQGTTVTVSS VL: DIELTQSPKFMSTSVGDRVSVTCKASQNVGTNVAWYQQKPGQSPKPLIYSATYRNSGVPDRFTGSGSGTDFTLTITNVQSKDLADYFCQQYNRYPYTSGGGTKLEIK", "binding result": "binds"}
{"binder": "FMC63^Y261A CAR on CAR T cells (receptor) VH: EVKLQESGPGLVAPSQSLSVTCTVSGVSLPDYGVSWIRQPPRKGLEWLGVIWGSETTYYNSALKSRLTIIKDNSKSQVFLKMNSLQTDDTAIYYCAKHYYAGGSYAMDYWGQGTSVTVSS VL: DIQMTQTTSSLSASLGDRVTISCRASQDISKYLNWYQQKPDGTVKLLIYHTSRLHSGVPSRFSGSGSGTDYSLTISNLEQEDIATYFCQQGNTLPYTFGGGTKLEIT", "binding result": "binds"}
